Test results reported in patent publication US20240383970A1 (BEIJING IMMUNOCHINA PHARMACEUTICALS, published 2024).
Residue numbers refer to the chain shown, from its start.

B1: 8A882 antibody (antibody, mouse IgG1, kappa, V domains shown)
VH: EVQLQQSGPELVKPGASVKMSCKASGYTFTDYYMKWVKQSHGKSLEWIGDINPNNGDTFYNQKFKGKATLTVDKSSSSAYMQLNSLTSEDSAVYYCARYYGNSSPWFAYWGQGTLVTVSA
VL: DIVLTQSPASLAVSLGQRATISCKASQSVDYDGDSYMNWYQQKPGQPPKLLIYAASNLQSGIPARFSGSGSGTDFTLNIHPVEEEDTATYYCQQITEDPWTFGGRTKLEIKR
notes: Mouse monoclonal antibody from a hybridoma, purified from ascites on a Protein A/G column
B2: 8F8D1 antibody (antibody, V domains shown)
VH: B1 VH with S44R, S78T, N102R, A108P
VL: B1 VL with A12G, Y31N, D32S, Q59E, T87A, T96N
notes: Mouse monoclonal antibody from a hybridoma, purified from ascites on a Protein A/G column; also called PE-labeled 8F8D1 antibody

Biological target: T1, CAR targeting CD19 containing a Strep-Tag II tag, on CAR-T cells (UniProt P01732 138-206; Q07011 214-255; P20963 52-163)
T1 construct: domain: CD8α hinge region, CD8α transmembrane region;domain: intracellular region of 4-IBB;domain: intracellular region of CD3ζ; Expressed on human T cells after lentiviral transduction; also called CAR-T cells containing a Strep-Tag II tag; Strep-Tag II short peptide
T1 sequence (P20963 other isoform, or with tags, fused parts or gaps): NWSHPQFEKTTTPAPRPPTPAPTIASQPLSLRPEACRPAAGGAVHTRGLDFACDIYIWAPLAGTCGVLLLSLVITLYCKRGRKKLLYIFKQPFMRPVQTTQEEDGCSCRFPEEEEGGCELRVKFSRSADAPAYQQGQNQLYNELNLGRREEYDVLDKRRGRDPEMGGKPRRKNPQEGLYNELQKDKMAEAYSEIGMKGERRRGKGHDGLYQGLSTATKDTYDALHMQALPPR
Test: flow cytometry titration (10 concentrations) on CAR-T cells with Strep-Tag II tag; filing equates EC50 with KD (saturated concentration method)
Text: The antibody affinity detection of the present invention adopts the dynamic equilibrium assay method (saturated concentration method). In the presence of a small amount of antigen, the antibody is subjected to gradient dilution to detect the concentration of the antigen-antibody complex. When the concentration of the antigen-antibody complex accounts for half of the total antigen concentration, the corresponding concentration value (EC50) of the antibody is the KD value of the antibody relative to the antigen.
CAR-T cells containing a Strep-Tag II tag were collected, washed with DPBS and counted. The cells were dispensed into several EP tubes at approximately 3×10⁵ cells per tube. After centrifugation to remove the supernatant, 8A882 antibody or 8F8D1 antibody and a positive control antibody (commercial Strep-Tag II antibody, Abcam; Cat #: ab184224) diluted in serial gradient for 10 concentrations were added and incubated at room temperature for 15 minutes. After washing the cells twice with DPBS, PE-labeled rat anti-mouse IgG was added, and incubated at room temperature for 15 minutes. After washing the cells twice, FACS analysis and GraphPad Prism software were used to calculate the EC50 value. […] Compared with the positive control antibody, the two strain antibodies of the present invention have high affinity.

Row | Binder | EC50
1 | B1 | 400 pM
2 | B2 | 200 pM
